{"source": "patent US20060140929A1", "about": "(Merck KGaA, published 2006)", "binders": {"B1": {"name": "hirudin mutein M 37 (L13T) (other)", "chain": "VVYTDCTESGQNTCLCEGSVVCGQGNKCILGSDGEKNQCVTGEGTPKPESHNDGDFEEIPEEYLQ"}, "B2": {"name": "hirudin mutein M 80 (D53R) (other)", "chain": "B1 chain with T13L, D53R"}, "B3": {"name": "hirudin mutein M 38 (L15A) (other)", "chain": "B1 chain with T13L, L15A"}, "B4": {"name": "hirudin mutein M 50 (I29A) (other)", "chain": "B1 chain with T13L, I29A"}, "B5": {"name": "hirudin mutein M 81 (F56H) (other)", "chain": "B1 chain with T13L, F56H"}, "B6": {"name": "hirudin mutein M 40 (L15Q) (other)", "chain": "B1 chain with T13L, L15Q"}, "B7": {"name": "hirudin mutein M 12 (I29A L30K) (other)", "chain": "B1 chain with T13L, I29A, L30K"}, "B8": {"name": "hirudin mutein M 41 (L15T) (other)", "chain": "B1 chain with T13L, L15T"}, "B9": {"name": "hirudin mutein M 46 (V21N) (other)", "chain": "B1 chain with T13L, V21N"}, "B10": {"name": "hirudin mutein M 66 (L30K) (other)", "chain": "B1 chain with T13L, L30K"}, "B11": {"name": "hirudin mutein M 49 (V21R) (other)", "chain": "B1 chain with T13L, V21R"}, "B12": {"name": "hirudin mutein M 63 (L30E) (other)", "chain": "B1 chain with T13L, L30E"}, "B13": {"name": "hirudin mutein M 53 (I29G) (other)", "chain": "B1 chain with T13L, I29G"}, "B14": {"name": "hirudin mutein M 75 (K47T) (other)", "chain": "B1 chain with T13L, K47T"}, "B15": {"name": "hirudin mutein M 1 (I29A L30A) (other)", "chain": "B1 chain with T13L, I29A, L30A"}, "B16": {"name": "hirudin mutein M 58 (I29R) (other)", "chain": "B1 chain with T13L, I29R"}, "B17": {"name": "hirudin mutein M 65 (L30H) (other)", "chain": "B1 chain with T13L, L30H"}, "B18": {"name": "hirudin mutein M 16 (I29D L30A) (other)", "chain": "B1 chain with T13L, I29D, L30A"}, "B19": {"name": "hirudin mutein M 72 (L30T) (other)", "chain": "B1 chain with T13L, L30T"}, "B20": {"name": "hirudin mutein M 79 (D53N) (other)", "chain": "B1 chain with T13L, D53N"}, "B21": {"name": "hirudin mutein M 19 (I29E L30K) (other)", "chain": "B1 chain with T13L, I29E, L30K"}, "B22": {"name": "hirudin mutein M 59 (I29S) (other)", "chain": "B1 chain with T13L, I29S"}, "B23": {"name": "hirudin mutein M 74 (V40T) (other)", "chain": "B1 chain with T13L, V40T"}, "B24": {"name": "hirudin mutein M 70 (L30R) (other)", "chain": "B1 chain with T13L, L30R"}, "B25": {"name": "hirudin mutein M 51 (I29D) (other)", "chain": "B1 chain with T13L, I29D"}, "B26": {"name": "hirudin mutein M 78 (D53E) (other)", "chain": "B1 chain with T13L, D53E"}, "B27": {"name": "hirudin mutein M 68 (L30P) (other)", "chain": "B1 chain with T13L, L30P"}, "B28": {"name": "hirudin mutein M 48 (V21Q) (other)", "chain": "B1 chain with T13L, V21Q"}, "B29": {"name": "hirudin mutein M 52 (I29E) (other)", "chain": "B1 chain with T13L, I29E"}, "B30": {"name": "hirudin mutein M 14 (I29A L30R) (other)", "chain": "B1 chain with T13L, I29A, L30R"}, "B31": {"name": "hirudin mutein M 54 (I29H) (other)", "chain": "B1 chain with T13L, I29H"}, "B32": {"name": "hirudin mutein M 60 (I29T) (other)", "chain": "B1 chain with T13L, I29T"}, "B33": {"name": "hirudin mutein M 39 (L15H) (other)", "chain": "B1 chain with T13L, L15H"}, "B34": {"name": "hirudin mutein M 47 (V21P) (other)", "chain": "B1 chain with T13L, V21P"}, "B35": {"name": "hirudin mutein M 67 (L30N) (other)", "chain": "B1 chain with T13L, L30N"}, "B36": {"name": "hirudin mutein M 71 (L30S) (other)", "chain": "B1 chain with T13L, L30S"}, "B37": {"name": "hirudin mutein M 76 (P48A) (other)", "chain": "B1 chain with T13L, P48A"}, "B38": {"name": "hirudin mutein M 17 (I29D L30Q) (other)", "chain": "B1 chain with T13L, I29D, L30Q"}, "B39": {"name": "hirudin mutein M 57 (I29Q) (other)", "chain": "B1 chain with T13L, I29Q"}, "B40": {"name": "hirudin mutein M 61 (L30A) (other)", "chain": "B1 chain with T13L, L30A"}, "B41": {"name": "hirudin mutein M 56 (I29N) (other)", "chain": "B1 chain with T13L, I29N"}, "B42": {"name": "hirudin mutein M 15 (I29A L30T) (other)", "chain": "B1 chain with T13L, I29A, L30T"}, "B43": {"name": "hirudin mutein M 64 (L30G) (other)", "chain": "B1 chain with T13L, L30G"}, "B44": {"name": "hirudin mutein M 69 (L30Q) (other)", "chain": "B1 chain with T13L, L30Q"}, "B45": {"name": "hirudin mutein M 13 (I29A L30Q) (other)", "chain": "B1 chain with T13L, I29A, L30Q"}, "B46": {"name": "hirudin mutein M 62 (L30D) (other)", "chain": "B1 chain with T13L, L30D"}, "B47": {"name": "hirudin mutein M 55 (I29K) (other)", "chain": "B1 chain with T13L, I29K"}, "B48": {"name": "hirudin mutein M 73 (V40A) (other)", "chain": "B1 chain with T13L, V40A"}, "B49": {"name": "hirudin mutein M 77 (P48T) (other)", "chain": "B1 chain with T13L, P48T"}}, "note": "Residue numbers refer to the chain shown, from its start. Numbers in names are those of the source.", "data": [{"target": "thrombin", "test": "cell-based or functional assay", "units": {"Relative Activity (ratio of variant IC50/WT IC50), chromogenic thrombin inhibition assay": "ratio"}, "values": [{"binder": "B1", "Relative Activity (ratio of variant IC50/WT IC50), chromogenic thrombin inhibition assay": 0.6}, {"binder": "B2", "Relative Activity (ratio of variant IC50/WT IC50), chromogenic thrombin inhibition assay": 1}, {"binder": "B3", "Relative Activity (ratio of variant IC50/WT IC50), chromogenic thrombin inhibition assay": 0.9}, {"binder": "B4", "Relative Activity (ratio of variant IC50/WT IC50), chromogenic thrombin inhibition assay": 1}, {"binder": "B5", "Relative Activity (ratio of variant IC50/WT IC50), chromogenic thrombin inhibition assay": 0.8}, {"binder": "B6", "Relative Activity (ratio of variant IC50/WT IC50), chromogenic thrombin inhibition assay": 0.34}, {"binder": "B7", "Relative Activity (ratio of variant IC50/WT IC50), chromogenic thrombin inhibition assay": 1.45}, {"binder": "B8", "Relative Activity (ratio of variant IC50/WT IC50), chromogenic thrombin inhibition assay": 0.4}, {"binder": "B9", "Relative Activity (ratio of variant IC50/WT IC50), chromogenic thrombin inhibition assay": 0.83}, {"binder": "B10", "Relative Activity (ratio of variant IC50/WT IC50), chromogenic thrombin inhibition assay": 1}, {"binder": "B11", "Relative Activity (ratio of variant IC50/WT IC50), chromogenic thrombin inhibition assay": 0.77}, {"binder": "B12", "Relative Activity (ratio of variant IC50/WT IC50), chromogenic thrombin inhibition assay": 3.33}, {"binder": "B13", "Relative Activity (ratio of variant IC50/WT IC50), chromogenic thrombin inhibition assay": 1.8}, {"binder": "B14", "Relative Activity (ratio of variant IC50/WT IC50), chromogenic thrombin inhibition assay": 2.2}, {"binder": "B15", "Relative Activity (ratio of variant IC50/WT IC50), chromogenic thrombin inhibition assay": 1.4}, {"binder": "B16", "Relative Activity (ratio of variant IC50/WT IC50), chromogenic thrombin inhibition assay": 1}, {"binder": "B17", "Relative Activity (ratio of variant IC50/WT IC50), chromogenic thrombin inhibition assay": 1}, {"binder": "B18", "Relative Activity (ratio of variant IC50/WT IC50), chromogenic thrombin inhibition assay": 1.6}, {"binder": "B19", "Relative Activity (ratio of variant IC50/WT IC50), chromogenic thrombin inhibition assay": 1}, {"binder": "B20", "Relative Activity (ratio of variant IC50/WT IC50), chromogenic thrombin inhibition assay": 1}, {"binder": "B21", "Relative Activity (ratio of variant IC50/WT IC50), chromogenic thrombin inhibition assay": 1.1}, {"binder": "B22", "Relative Activity (ratio of variant IC50/WT IC50), chromogenic thrombin inhibition assay": 1}, {"binder": "B23", "Relative Activity (ratio of variant IC50/WT IC50), chromogenic thrombin inhibition assay": 1}, {"binder": "B24", "Relative Activity (ratio of variant IC50/WT IC50), chromogenic thrombin inhibition assay": 1}, {"binder": "B25", "Relative Activity (ratio of variant IC50/WT IC50), chromogenic thrombin inhibition assay": 1}, {"binder": "B26", "Relative Activity (ratio of variant IC50/WT IC50), chromogenic thrombin inhibition assay": 1}, {"binder": "B27", "Relative Activity (ratio of variant IC50/WT IC50), chromogenic thrombin inhibition assay": 1.83}, {"binder": "B28", "Relative Activity (ratio of variant IC50/WT IC50), chromogenic thrombin inhibition assay": 0.83}, {"binder": "B29", "Relative Activity (ratio of variant IC50/WT IC50), chromogenic thrombin inhibition assay": 1}, {"binder": "B30", "Relative Activity (ratio of variant IC50/WT IC50), chromogenic thrombin inhibition assay": 2.7}, {"binder": "B31", "Relative Activity (ratio of variant IC50/WT IC50), chromogenic thrombin inhibition assay": 1}, {"binder": "B32", "Relative Activity (ratio of variant IC50/WT IC50), chromogenic thrombin inhibition assay": 1}, {"binder": "B33", "Relative Activity (ratio of variant IC50/WT IC50), chromogenic thrombin inhibition assay": 0.65}, {"binder": "B34", "Relative Activity (ratio of variant IC50/WT IC50), chromogenic thrombin inhibition assay": 1}, {"binder": "B35", "Relative Activity (ratio of variant IC50/WT IC50), chromogenic thrombin inhibition assay": 1.54}, {"binder": "B36", "Relative Activity (ratio of variant IC50/WT IC50), chromogenic thrombin inhibition assay": 1.83}, {"binder": "B37", "Relative Activity (ratio of variant IC50/WT IC50), chromogenic thrombin inhibition assay": 1}, {"binder": "B38", "Relative Activity (ratio of variant IC50/WT IC50), chromogenic thrombin inhibition assay": 2}, {"binder": "B39", "Relative Activity (ratio of variant IC50/WT IC50), chromogenic thrombin inhibition assay": 1}, {"binder": "B40", "Relative Activity (ratio of variant IC50/WT IC50), chromogenic thrombin inhibition assay": 1}, {"binder": "B41", "Relative Activity (ratio of variant IC50/WT IC50), chromogenic thrombin inhibition assay": 1}, {"binder": "B42", "Relative Activity (ratio of variant IC50/WT IC50), chromogenic thrombin inhibition assay": 1.21}, {"binder": "B43", "Relative Activity (ratio of variant IC50/WT IC50), chromogenic thrombin inhibition assay": 2.2}, {"binder": "B44", "Relative Activity (ratio of variant IC50/WT IC50), chromogenic thrombin inhibition assay": 1}, {"binder": "B45", "Relative Activity (ratio of variant IC50/WT IC50), chromogenic thrombin inhibition assay": 1.6}, {"binder": "B46", "Relative Activity (ratio of variant IC50/WT IC50), chromogenic thrombin inhibition assay": 2}, {"binder": "B47", "Relative Activity (ratio of variant IC50/WT IC50), chromogenic thrombin inhibition assay": 1}, {"binder": "B48", "Relative Activity (ratio of variant IC50/WT IC50), chromogenic thrombin inhibition assay": 1}, {"binder": "B49", "Relative Activity (ratio of variant IC50/WT IC50), chromogenic thrombin inhibition assay": 1}]}]}
